Laboratory results: the supplement of paper PMC10567573

B1: VTI1B (parent)
chain: ANETLAEMEEELRYAPLSFRNPMM
B2: CLCN6 (parent)
chain: FQSISLRKIQFNFPYFRSDRDKRD

Variants of: B1
Experiment: protein stability index of a GFP-peptide fusion (GPS, HEK-293T) (PSI 1-6); higher = more stable
Details: c terminus: a fixed tail appended
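Also: lentivirally expressed fusions sorted by FACS into six bins by GFP to DsRed ratio, PSI derived from sequencing read proportions per bin multiplied by bin number.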

Protein stability index of substitutions, site by site:
P22: S 3.48; H 4.1; T 3.22; Q 4.11; R 3.32; G 3.58; C 3.25; W 3.03; E 3.97; F 2.67; V 2.81; A 3.56; I 3.03; M 3.63; N 3.58; Y 3.38; L 3.34; K 3.43; D 4.75
N21: H 3.42; C 2.71; F 3.35; L 3.13; R 3.25; Y 3.39; Q 3.76; T 3.17; I 2.92; P 3.58; E 3.95; D 3.12; A 3.81; M 3.37; S 3.41; W 2.21; K 3.61; G 3.72
R13: V 2.64; T 1.42; W 2.03; S 2.25; P 2.75; Q 2.37; Y 1.64
Y14: S 1.94; W 1.32; C 1.98; I 1.66; E 3.66; P 2.43; A 2.48; L 3.08; V 2.09; D 3.36; H 1.7; M 1.65; Q 1.67; R 2.47; K 1.93; T 2.53; N 2.62; F 2.06; G 2.11
P16: Q 2.29; C 1.92; I 2.43; D 3.56; G 2; F 2.17; M 1.77; R 2.71; Y 2.36; L 1.88; T 2.77; K 2.92; V 1.3; A 2.26; S 2.92; W 1.89; H 2.64; N 3.15; E 2.66
R20: G 2.65; T 2.42; C 2.35; N 1.51; L 2.57; H 1.7; V 1.71; K 3.36; E 2.58; A 2.25; Y 2.12; I 1.9; W 2.48; F 2.63; D 2.48; M 2.4; S 2.03; P 3.62; Q 1.72
M24: L 2.26; R 3.21; V 3.04; W 3.97; C 2.37; K 3.91; G 3.72; E 4.67; D 3.92; P 4.98; S 4.41; N 3.2; Y 3.46; H 3.26; A 3.78; T 3.97; Q 2.46; F 2.83
M23: Q 2.89; N 3.67; A 2.71; R 2.19; G 3.46; K 3.07; C 3.62; Y 2.79; V 1.83; F 2.62; D 4.13; H 3.24; W 2.13; E 2.79; T 3.35; L 3.56; I 2.04; S 3.62
L17: C 3.58; A 3.66; N 4.16; S 2.8; Y 3.41; W 2; V 2.8; I 3.02; M 3.13; P 3.78; K 3.69; D 4.33; Q 4.14; T 4.06; E 4.46; R 2.93; F 1.52; H 3.79; G 3.49
S18: E 3.79; F 2.64; V 3.14; Q 3.35; T 1.79; D 2.98; R 3.8; W 3.98; G 3.19; P 4.1; C 2.24; L 3.19; A 2.21; Y 3.25; M 2.81; N 2.23; K 3.81; I 2.83; H 2.94
F19: P 4.87; N 4.3; H 4.26; I 3.73; V 3.28; W 3.24; D 4.85; T 4.44; K 4.49; M 4.23; C 4.43; A 3.94; E 4.67; Y 2.35; R 4.18; Q 3.96; G 4.5
A15: S 1.61; L 2.03; M 1.53; F 1.39; N 2.64; C 1.64; T 2.06; D 3.7; Q 1.67; Y 2.52; I 2.06; W 2.92; V 3.98; H 1.9; R 1.76; G 3.44; E 3.56; K 3.09

Variants of: B2
Experiment: as above
Details: c terminus: a fixed tail appended

Protein stability index, by site and new letter:
I9: Q 2.81; E 1.98; C 1.98; G 1.44; P 1.65; N 1.47; H 1.83; W 1.78; R 2.02; T 2.78; D 1.72; S 2; L 1.62
F1: I 2.16; H 2.83; G 2.16; E 4; C 2.4; R 2.07; D 3.34; Q 3.52; N 3.76; P 2.29; S 3.4; A 2.6; K 3.31; T 2.77
S5: G 1.02; Y 1.98; E 2.21; P 1.82; D 1.96; M 1.46; N 1.82; F 2.62; I 1.4; Q 1.66; A 1.82; T 1.42; K 1.7; H 1.74; R 1.77
Q10: C 2.6; A 1.56
K8: C 1.75; M 2.08; W 2.43; R 1.74; E 2.63; H 2.92; Y 2.09; L 2.64; N 2.18; P 2.92; S 1.31; Q 2.12; I 2.78; T 1.44
I4: M 3; T 2.21; D 2.05; L 2.44; G 2.02; E 1.91; Y 1.42; Q 1.9; V 1.98; P 2.19; N 1.98; S 1.74; A 2.71
R7: W 1.77; C 1.81; H 2.02; M 1.21; S 2.4; K 1.59; A 2.38; N 1.97; V 2.97; P 3.68; T 1.78; L 1.37; E 2.56; Q 1.62; I 1.77
L6: A 2.68; T 2.59; P 2.78; N 1.68; E 2.08; C 1.53; Q 2.13; H 2.03; S 1.66
Q2: A 2.17; N 1.62; F 1.53; G 1.54; L 2.31; R 1.91; I 1.06; E 2.69; T 2.73; C 1.9; V 5.36; S 1.96; D 2.46; K 2.5; Y 1.33
S3: P 2.29; N 1.82; L 1.08; A 1.4; T 1.79; R 1.38; W 2.4; I 1.74; D 2.19; G 1.89; H 1.46; F 2.58; E 2.73; Q 1.66
